Test results taken from patent US6458552B1, “Metalloprotease peptide substrates and methods” (Ortho-McNeil Pharmaceutical, Inc., priority 2000, dated 2002).

Assays:
[1] = tested on: ADAM8; experiment: ADAM8 protein expression in THP-1 cells (immunoblot); format: cell-based, human; settings: LPS 100 ng/ml 16 hours, IFN-γ 200U/ml 24 hours
Protocol: Polyclonal antisera against ADAM8 and ADAM15 were generated by immunizing rabbits with KLH-conjugated peptides corresponding to the C-terminal sequences of ADAM8 and 15, respectively. The antisera were used to detect ADAM8 and ADAM15 in THP-1 cell lysates. THP-1 cells were treated with interferon(IFN)-γ (200U/ml) or bacterial lipopolysaccharide (LPS) (100 ng/ml), for 24 hours or 16 hours, respectively. The cells were then harvested, washed with PBS and lysed in PBS containing 1% NP-40 and Complete® protease inhibitors. The cell extracts were analyzed for expression of ADAM8 and ADAM15 by SDS-PAGE, transfer to nitrocellulose, and immunoblotting with the antisera to ADAM8 and ADAM15, respectively. […] The corresponding pre-immune sera gave no positive bands at these molecular weights for THP-1 cell extracts in similar assays.

[2] = target: T1, AD8P2 FRET peptide X-RVRRALPS-Z (not fully specified)
T1 chain: RVRRALPS

[3] = target: T2, TNFα(-4 + 6) FRET peptide Z-LAQAVRSSSR-X (not fully specified)
T2 chain: LAQAVRSSSR

[4] = target: T3, TNFB2 FRET peptide X-PSAAQTARQHP-Z (not fully specified)
T3 chain: PSAAQTARQHP

[5] = target: T4, Mat FRET peptide Z-RPLGLAR-X (not fully specified)
T4 chain: RPLGLAR

[6] = target: T5, KAS-1 FRET peptide Z-RGVVNASSRLAK-X (not fully specified)
T5 chain: RGVVNASSRLAK

[7] = target: T6, CatE FRET peptide X-KPAAFFRL-Z (not fully specified)
T6 chain: KPAAFFRL

[8] = target: T7, CD27L FRET peptide X-RFAQAQQQLP-Z (not fully specified)
T7 chain: RFAQAQQQLP

[9] = target: T8, CatE1 FRET peptide X-KPAKFFRL-Z (not fully specified)
T8 chain: KPAKFFRL

[10] = target: T9, KL1 FRET peptide X-PPVAASSLRN-Z (not fully specified)
T9 chain: PPVAASSLRN

[11] = target: T10, TNFα FRET peptide X-PLAQAVRSSS-Z (not fully specified)
T10 chain: PLAQAVRSSS

[12] = target: T11, AD8P FRET peptide X-RTAAVFRP-Z (not fully specified)
T11 chain: RTAAVFRP

[13] = tested on: membrane-bound CD23; experiment: Cleavage of CD23 from the surface of U937 cells by ADAM enzymes (flow cytometry); format: cell-based, human; settings: U-937 cells, one hour at 37° C.
Protocol: U-937 (ATCC CRL-1593.2), a monoblastoid cell line, were harvested, washed and resuspended in HEPES-buffered saline, pH 7.5. Then the cells were treated for one hour at 37° C. in the absence or presence of ADAM8, ADAM17, ADAM15 or MDC-L. As a further control, some cells were incubated in the presence of ADAM8, ADAM17, ADAM15 or MDC-L with the addition of Inhibitor C. Intact, membrane-bound CD23 was then detected by staining the cells with a FITC-conjugated anti-human CD23 antibody (Pharmingen) and detection by flow cytometry.

Molecule | Relative proteolytic activity [2] | Relative proteolytic activity [3] | Relative proteolytic activity [4] | Relative proteolytic activity [5] | Relative proteolytic activity [6] | Relative proteolytic activity [7] | Relative proteolytic activity [8] | Relative proteolytic activity [9] | Relative proteolytic activity [10] | Relative proteolytic activity [11] | Relative proteolytic activity [12] | Cleavage of membrane-bound CD23 from the cell surface [13] | other results
IFN-γ: interferon-γ | – | – | – | – | – | – | – | – | – | – | – | – | Up-regulation of ADAM8 at the protein level [1]: approximately ten-fold
soluble recombinant human ADAM15, active form (protein) DVVTETKTVELVIVADHSEAQKYRDFQHLLNRTLEVALLLDTFFRPLNVRVALVGLEAWTQRDLVEISPNPAVTLENFLHWRRAHLLPRLPHDSAQLVTGTSFSGPTVGMAIQNSICSPDFSGGVNMDHSTSILGVASSIAHELGHSLGLDHDLPGNSCPCPGPAPAKTCIMEASTDFLPGLNFSNCSRRALEKALLDGMGSCLFERL | *** | * | *** | *** | *** | ***** | **** | ***** | *** | *** | * | – | –
soluble recombinant human MDC-L, active form (protein) VQEHEKYIEYYLVLDNGEFKRYNENQDEIRKRVFEMANYVNMLYKKLNTHVALVGMEIWTDKDKIKITPNASFTLENFSKWRGSVLSRRKRHDIAQLITATELAGTTVGLAFMSTMCSPYSVGVVQDHSDNLLRVAGTMAHEMGHNFGMFHDDYSCKCPSTICVMDKALSFYIPTDFSSCSRLSYDKFFEDKLSNCLFNAP | *** | * | *** | *** | *** | ***** | **** | ***** | *** | *** | * | – | –
MDC-L: recombinant soluble MDC-L: pro- and protease domains with C-terminal FLAG epitope (protein, left off: small tags and cut ends) VQEHEKYIEYYLVLDNGEFKRYNENQDEIRKRVFEMANYVNMLYKKLNTHVALVGMEIWTDKDKIKITPNASFTLENFSKWRGSVLSRRKRHDIAQLITATELAGTTVGLAFMSTMCSPYSVGVVQDHSDNLLRVAGTMAHEMGHNFGMFHDDYSCKCPSTICVMDKALSFYIPTDFSSCSRLSYDKFFEDKLSNCLFNAP | – | – | – | – | – | – | – | – | – | – | – | similarly found to cleave membrane-bound CD23 | –
soluble recombinant human ADAM8, active (processed) form (protein) RYVELYVVVDNAEFQMLGSEAAVRHRVLEVVNHVDKLYQKLNFRVVLVGLEIWNSQDRFHVSPDPSVTLENLLTWQARQRTRRHLHDNVQLITGVDFTGTTVGFARVSAMCSHSSGAVNQDHSKNPVGVACTMAHEMGHNLGMDHDENVQGCRCQERFEAGRCIMAGSIGSSFPRMFSDCSQAYLESFLERPQSVCLANAP | *** | * | *** | *** | *** | ***** | **** | ***** | *** | *** | * | – | Hill coefficient [7]: allosteric kinetics with a Hill coefficient of approximately 3; K0.5 (substrate concentration at which the enzyme activity was 50% of the Vmax) [7]: 5 µM; Hill coefficient [8]: allosteric kinetics with a Hill coefficient of approximately 3; K0.5 (substrate concentration at which the enzyme activity was 50% of the Vmax) [8]: 5 µM; FRET peptide zymography [9]: lanes 2 and 3 contain active, processed, ADAM8 preparations; Hill coefficient [9]: allosteric kinetics with a Hill coefficient of approximately 3; K0.5 (substrate concentration at which the enzyme activity was 50% of the Vmax) [9]: 2.5 µM; Hill coefficient [11]: allosteric kinetics with a Hill coefficient of approximately 3; K0.5 (substrate concentration at which the enzyme activity was 50% of the Vmax) [11]: 5 µM
recombinant ADAM17 (protein) RADPDPMKNTCKLLVVADHRFYRYMGRGEESTTTNYLIELIDRVDDIYRNTSWDNAGFKGYGIQIEQIRILKSPQEVKPGEKHYNMAKSYPNEEKDAWDVKMLLEQFSFDIAEEASKVCLAHLFTYQDFDMGTLGLAYVGSPRANSHGGVCPKAYYSPVGKKNIYLNSGLTSTKNYGKTILTKEADLVTTHELGHNFGAEHDPDGLAECAPNEDQGGKYVMYPIAVSGDHENNKMFSNCSKQSIYKTIESKAQECFQERSNKV | (-) | *** | (-) | *** | (-) | (-) | (-) | (-) | (-) | *** | ***** | does not cleave CD 23 | –
